Data published in PMC5296763, “Structural basis for redox sensitivity in Corynebacterium glutamicum diaminopimelate epimerase: an enzyme involved in L-lysine biosynthesis” (Scientific Reports, 2017).

Assays:
CgDapF = biological target: T1, CgDapF (Corynebacterium glutamicum, UniProt Q8NP73); test: X-ray crystal structure, […] A; type: binding; settings: crystallised with a 10 mM DAP isomer mixture (L,L, D,D, D,L), pH 9.0; only D,L-DAP density seen; active site
T1 construct: gene dapF

purified protein = substrate: N[C@@H](CCC[C@H](N)C(=O)O)C(=O)O; test: purified protein; type: biochemical, Corynebacterium glutamicum; settings: 0.1 M potassium phosphate, pH 8.0, room temperature, 3.45 uM enzyme, substrate named in the assay method
[1] = biological target: the molecule itself; test: SEC; size-exclusion chromatography under both the oxidized and the reduced conditions; data not shown

## N[C@H](CCC[C@H](N)C(=O)O)C(=O)O [D,L-DAP]
CgDapF
  X-ray crystal structure, 2.6 A: we determined the crystal structure of the protein in complex with the D,L-DAP product

B1: CgDapF (Corynebacterium glutamicum ATCC 13032) (protein)
chain: MNLTIPFAKGHATENDFIIIPDEDARLDLTPEMVVTLCDRRAGIGADGILRVVKAADVEGSTVDPSLWFMDYRNADGSLAEMCGNGVRLFAHWLYSRGLVDNTSFDIGTRAGVRHVDILQADQHSAQVRVDMGIPDVTGLSTCDINGQVFAGLGVDMGNPHLACVVPGLSASALADMELRAPTFDQEFFPHGVNVEIVTELEDDAVSMRVWERGVGETRSCGTGTVAAACAALADAGLGEGTVKVCVPGGEVEVQIFDDGSTLTGPSAIIALGEVQI
Purified protein
  Km: 1860 µM
  kcat: 58 s⁻¹

B2: Diaminopimelate epimerase (DapF) from Corynebacterium glutamicum (enzyme, UniProt Q8NP73 1-277, looked up)
chain: B1 chain
modifications: selenomethionine-substituted (SeMet derivative) in the crystals of the oxidized and reduced forms (5H2G, 5H2Y)
notes: Diaminopimelate epimerase (DapF, EC 5.1.1.7) of Corynebacterium glutamicum strain ATCC 13032, gene amplified from genomic DNA and cloned in pET30a; also called CgDapF; DAP epimerase; source: E. coli B834(DE3), purified (Ni-NTA, size-exclusion chromatography on Superdex 200); not shown: His tag (from the Ni-NTA purification)
[1]
  stoichiometry N: 2
